Values of other authors in PMC3773300 (Journal of inorganic biochemistry, 2013).

Conditions: Mb

Q: For “Mb: Myoglobin, heme protein involved in reversible O2 binding”, which redox potential is on record?
A: Its redox potential is 59 mV.
